Assay [1] concerns the target T1, extracellular domain (ECD) of human αKlotho, amino acids E34-S981 with C-terminal 6-His tag (R&D Systems … (human, UniProt Q9UEF7 34-981)).
T1 construct: range 34-981; also called αKlotho (aa34-981); target antigen
T1 sequence: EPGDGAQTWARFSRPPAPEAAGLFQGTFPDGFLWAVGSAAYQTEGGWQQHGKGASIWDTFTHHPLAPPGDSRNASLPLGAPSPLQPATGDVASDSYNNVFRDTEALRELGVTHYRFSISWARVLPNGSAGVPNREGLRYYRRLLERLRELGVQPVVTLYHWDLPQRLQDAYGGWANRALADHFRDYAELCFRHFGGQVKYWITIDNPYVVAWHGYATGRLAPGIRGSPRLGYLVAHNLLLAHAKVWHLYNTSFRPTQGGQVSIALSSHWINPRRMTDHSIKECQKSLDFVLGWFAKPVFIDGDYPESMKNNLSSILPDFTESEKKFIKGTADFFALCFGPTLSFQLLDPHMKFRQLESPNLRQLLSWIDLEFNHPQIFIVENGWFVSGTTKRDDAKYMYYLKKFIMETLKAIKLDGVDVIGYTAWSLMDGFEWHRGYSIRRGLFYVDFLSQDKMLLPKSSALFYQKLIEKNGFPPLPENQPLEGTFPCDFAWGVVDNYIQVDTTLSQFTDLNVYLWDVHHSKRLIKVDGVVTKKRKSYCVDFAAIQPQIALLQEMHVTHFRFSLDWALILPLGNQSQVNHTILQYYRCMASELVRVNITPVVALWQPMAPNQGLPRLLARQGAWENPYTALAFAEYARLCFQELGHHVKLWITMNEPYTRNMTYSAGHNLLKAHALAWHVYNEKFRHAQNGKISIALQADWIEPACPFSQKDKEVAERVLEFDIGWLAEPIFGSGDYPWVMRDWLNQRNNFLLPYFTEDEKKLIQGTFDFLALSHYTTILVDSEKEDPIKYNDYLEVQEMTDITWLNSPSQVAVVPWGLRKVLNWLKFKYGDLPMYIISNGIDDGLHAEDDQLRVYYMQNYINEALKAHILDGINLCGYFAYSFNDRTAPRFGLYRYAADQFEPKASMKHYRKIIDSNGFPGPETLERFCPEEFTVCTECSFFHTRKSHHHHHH
Put plainly: SPR, Fab captured by anti-H+L antibody, αKlotho injected. As to the method:
(§1) Affinity estimates for each of the antibodies were determined by surface plasmon resonance (SPR). Fabs were immobilized using an anti-H+L antibody and serial dilutions of αKlotho were injected.
In general terms: SPR reads the build-up and loss of mass on a sensor chip optically.

In assay [2] the target is T1, extracellular domain (ECD) of human …. Put plainly: SPR, Fab captured by anti-H+L IgG, αKlotho injected at 50 to 6.25 ug/ml, Langmuir fit. The procedure: as §1
For assay [3] the target is unchanged. Briefly: SPR, Fab captured by anti-H+L IgG, αKlotho injected at 50 to 6.25 ug/ml, Langmuir fit [continued]. The procedure: as §1
The target of assay [4] is T2, mouse αKlotho (mouse, UniProt O35082 35-982).
T2 construct: also called Mu aKL
T2 sequence (looked up): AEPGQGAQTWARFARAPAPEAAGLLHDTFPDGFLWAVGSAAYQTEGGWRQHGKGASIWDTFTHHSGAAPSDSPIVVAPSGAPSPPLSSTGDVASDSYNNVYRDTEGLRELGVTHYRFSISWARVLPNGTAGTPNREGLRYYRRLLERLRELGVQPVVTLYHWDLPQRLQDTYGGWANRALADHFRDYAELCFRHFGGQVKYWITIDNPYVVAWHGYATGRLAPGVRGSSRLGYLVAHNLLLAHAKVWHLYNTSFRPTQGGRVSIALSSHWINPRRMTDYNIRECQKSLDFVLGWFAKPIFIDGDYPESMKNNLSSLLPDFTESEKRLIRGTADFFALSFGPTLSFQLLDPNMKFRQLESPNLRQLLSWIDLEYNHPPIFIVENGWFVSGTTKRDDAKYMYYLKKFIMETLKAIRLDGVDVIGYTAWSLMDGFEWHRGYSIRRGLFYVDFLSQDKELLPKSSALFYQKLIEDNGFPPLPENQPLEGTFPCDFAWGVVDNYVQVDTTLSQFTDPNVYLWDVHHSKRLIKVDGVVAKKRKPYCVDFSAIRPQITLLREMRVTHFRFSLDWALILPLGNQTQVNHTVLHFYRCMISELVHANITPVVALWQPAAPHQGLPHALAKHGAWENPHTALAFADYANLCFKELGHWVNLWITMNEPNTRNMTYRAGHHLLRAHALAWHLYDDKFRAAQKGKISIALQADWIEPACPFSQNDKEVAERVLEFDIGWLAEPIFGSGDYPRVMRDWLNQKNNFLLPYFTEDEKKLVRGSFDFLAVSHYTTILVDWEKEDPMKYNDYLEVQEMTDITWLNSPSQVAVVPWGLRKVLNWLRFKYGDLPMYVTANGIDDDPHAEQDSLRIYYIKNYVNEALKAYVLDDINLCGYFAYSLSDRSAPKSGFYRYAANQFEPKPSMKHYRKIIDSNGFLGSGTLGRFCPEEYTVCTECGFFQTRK
Put plainly: SPR (ProteOn XPR36), Fab captured by anti-IgG(H+L), mouse αKlotho injected in serial dilutions, Langmuir fit [continued) C.]. The procedure:
(§2) Estimated affinities against human and mouse antigen for select αKlotho Fabs were obtained by surface plasmon resonance on a ProteOn XPR36 (FIG. 17). Fabs were captured using an anti-IgG(H+L) antibody and serial dilutions of αKlotho were injected. Binding curves were fitted to the Langmuir model. (A) Determined Kon, Koff and KD values. (B) and (C) Binding curves for human and mouse antigen respectively.

Assay [5] deals with T3, soluble human αKlotho (recombinant) (human, UniProt Q9UEF7 34-981).
T3 construct: also called Hu aKL; recombinant human αKlotho
T3 sequence (looked up): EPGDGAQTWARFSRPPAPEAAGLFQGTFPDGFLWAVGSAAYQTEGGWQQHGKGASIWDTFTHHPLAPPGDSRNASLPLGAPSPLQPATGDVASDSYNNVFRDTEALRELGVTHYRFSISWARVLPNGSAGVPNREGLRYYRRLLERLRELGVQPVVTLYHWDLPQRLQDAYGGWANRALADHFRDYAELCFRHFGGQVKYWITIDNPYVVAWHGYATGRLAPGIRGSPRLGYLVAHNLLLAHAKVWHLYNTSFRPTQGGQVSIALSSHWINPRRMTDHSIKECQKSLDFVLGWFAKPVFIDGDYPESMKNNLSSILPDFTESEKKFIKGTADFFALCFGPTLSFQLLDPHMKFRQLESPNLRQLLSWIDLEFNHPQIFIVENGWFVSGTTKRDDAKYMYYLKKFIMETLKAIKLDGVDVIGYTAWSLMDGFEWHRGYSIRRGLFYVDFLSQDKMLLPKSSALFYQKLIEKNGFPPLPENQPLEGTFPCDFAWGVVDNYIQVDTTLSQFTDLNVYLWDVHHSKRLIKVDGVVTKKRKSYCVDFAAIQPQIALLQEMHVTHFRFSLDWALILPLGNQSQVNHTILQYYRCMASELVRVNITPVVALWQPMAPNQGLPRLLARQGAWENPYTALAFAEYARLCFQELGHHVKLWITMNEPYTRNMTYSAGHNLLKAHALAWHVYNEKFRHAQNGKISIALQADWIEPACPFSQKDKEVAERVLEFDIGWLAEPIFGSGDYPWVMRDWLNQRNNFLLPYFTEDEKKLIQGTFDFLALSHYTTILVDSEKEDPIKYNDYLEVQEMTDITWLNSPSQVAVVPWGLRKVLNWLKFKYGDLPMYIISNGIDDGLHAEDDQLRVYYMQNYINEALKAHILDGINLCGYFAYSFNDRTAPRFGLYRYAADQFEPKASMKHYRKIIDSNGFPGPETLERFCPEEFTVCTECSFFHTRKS
Put plainly: SPR (ProteOn XPR36), Fab captured by anti-IgG(H+L), human αKlotho injected in serial dilutions, Langmuir fit. The procedure:
as §2

In assay [6] the target is T2, mouse αKlotho. Briefly: SPR (ProteOn XPR36), Fab captured by anti-IgG(H+L), mouse αKlotho injected in serial dilutions, Langmuir fit. As to the method: as §2
In assay [7] the target is T3, soluble human αKlotho (recombinant). Put plainly: SPR (ProteOn XPR36), Fab captured by anti-IgG(H+L), human αKlotho injected in serial dilutions, Langmuir fit [continued) B.]. As to the method:
as §2

The target in another assay is T4, bovine serum albumin (bovine, UniProt P02769 25-607).
T4 construct: also called BSA
Briefly: Fab ELISA, purified Fab 5 ug/ml on immobilised BSA, anti-Flag-HRP, A450. The procedure: FIG. 10 is a graph showing absorbance values of Fab ELISAs with additional αKlotho antibodies. Purified Fabs [5 ug/ml] were incubated with immobilized αKlotho (1 ug/ml) or bovine serum albumin (BSA), as a negative control. After washing off unbound Fab, bound Fab were detected using an HRP-conjugated anti-Flag anti-body (Fabs have Flag-tag on the light chain). Colorimetric HRP reagents allow for absorbance readings at 450 nm.
In general terms: ELISA stands for enzyme-linked immunosorbent assay.

T4 sequence (P02769 25-607 limits assumed): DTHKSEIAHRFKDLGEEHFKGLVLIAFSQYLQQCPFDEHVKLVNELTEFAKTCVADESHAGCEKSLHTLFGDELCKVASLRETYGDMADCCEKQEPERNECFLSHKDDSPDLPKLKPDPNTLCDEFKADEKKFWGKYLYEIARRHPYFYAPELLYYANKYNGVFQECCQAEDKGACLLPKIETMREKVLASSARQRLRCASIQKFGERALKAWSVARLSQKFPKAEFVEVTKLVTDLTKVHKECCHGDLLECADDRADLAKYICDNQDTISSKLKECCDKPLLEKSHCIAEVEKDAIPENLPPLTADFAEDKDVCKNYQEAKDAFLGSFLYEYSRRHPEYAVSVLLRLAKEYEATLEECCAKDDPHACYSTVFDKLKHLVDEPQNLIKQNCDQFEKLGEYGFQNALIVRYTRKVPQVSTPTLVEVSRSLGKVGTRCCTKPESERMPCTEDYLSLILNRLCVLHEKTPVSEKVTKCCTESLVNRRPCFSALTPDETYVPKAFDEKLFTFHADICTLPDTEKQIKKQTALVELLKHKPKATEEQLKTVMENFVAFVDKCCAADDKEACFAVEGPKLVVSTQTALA

B1: anti-αKlotho Fab clone 4804 (Fab, V domains shown)
VH: EVQLVESGGGLVQPGGSLRLSCAASGFNLYSYSIHWVRQAPGKGLEWVAYISSSSGSTYYADSVKGRFTISADTSKNTAYLQMNSLRAEDTAVYYCARGWGGGYWFYPVYGIDYWGQGTLVTVSS
VL: DIQMTQSPSSLSASVGDRVTITCRASQSVSSAVAWYQQKPGKAPKLLIYSASSLYSGVPSRFSGSRSGTDFTLTISSLQPEDFATYYCQQSSYSLITFGQGTKVEIKR
notes: Fab (also as Fab-phage); FLAG tag on light chain C-terminus; also called sb173
In the case of B1, the equilibrium dissociation constant (Kd) – broadly, the constant that tells how readily two partners part at equilibrium – in assay [1] came out at 0.77 nM. In assay [2], the Kd amounted to 0.516 nM; the off-rate constant (koff) (commonly a measure of how fast the partners let go of each other) is 0.000738 s⁻¹; the kon (in general, the second-order rate constant of association) was found to be 1.43e+06 M⁻¹ s⁻¹.

B2: anti-αKlotho Fab clone 4807 (Fab, V domains shown)
VH: EVQLVESGGGLVQPGGSLRLSCAASGFNLSSSYMHWVRQAPGKGLEWVASIYPSYGSTSYADSVKGRFTISADTSKNTAYLQMNSLRAEDTAVYYCARGVVPSYYYWFWPYGAIDYWGQGTLVTVSS
VL: DIQMTQSPSSLSASVGDRVTITCRASQSVSSAVAWYQQKPGKAPKLLIYSASSLYSGVPSRFSGSRSGTDFTLTISSLQPEDFATYYCQQSSYSLITFGQGTKVEIKR
notes: Fab (also as Fab-phage); FLAG tag on light chain; also called sb176
B2: the Kd in assay [1] was determined as 6.1 nM. In assay [2], this molecule yielded a Kd of 3.5 nM, a koff of 0.00244 s⁻¹ and an association rate constant (kon) of 698000 M⁻¹ s⁻¹.

B3: anti-αKlotho Fab clone 4805 (Fab, V domains shown)
VH: EVQLVESGGGLVQPGGSLRLSCAASGFNLSYYSMHWVRQAPGKGLEWVASISSYYGSTYYADSVKGRFTISADTSKNTAYLQMNSLRAEDTAVYYCARGGGYYSGPYAGFDYWGQGTLVTVSS
VL: DIQMTQSPSSLSASVGDRVTITCRASQSVSSAVAWYQQKPGKAPKLLIYSASSLYSGVPSRFSGSRSGTDFTLTISSLQPEDFATYYCQQSSGWYHFLFTFGQGTKVEIKR
notes: Fab (also as Fab-phage); FLAG tag on light chain; also called sb174
B3 came in with a Kd in assay [1] of 0.24 nM. In assay [2], this molecule had an equilibrium dissociation constant (Kd) of 0.117 nM, a dissociation rate constant (koff) of 0.000183 s⁻¹ and a kon of 1.57e+06 M⁻¹ s⁻¹.

B4: anti-αKlotho Fab clone 4811 (Fab, V domains shown)
VH: EVQLVESGGGLVQPGGSLRLSCAASGFNLYYSYMHWVRQAPGKGLEWVASIYSSSSYTSYADSVKGRFTISADTSKNTAYLQMNSLRAEDTAVYYCARSPSWWVSYHSALDYWGQGTLVTVSS
VL: DIQMTQSPSSLSASVGDRVTITCRASQSVSSAVAWYQQKPGKAPKLLIYSASSLYSGVPSRFSGSRSGTDFTLTISSLQPEDFATYYCQQGYALFTFGQGTKVEIKR
notes: Fab (also as Fab-phage); FLAG tag on light chain; also called sb180
In the case of B4, the dissociation constant (Kd) in assay [1] was 2.3 nM; in assay [3], 1.13 nM; with mouse αKlotho [4], 10.3 nM; in assay [5], 1.48 nM; in the assay with mouse αKlotho [6], 19.9 nM; in assay [7] it was 1.48 nM. The koff in assay [3] is 0.000609 s⁻¹; with mouse αKlotho [4], 0.00276 s⁻¹; in assay [5] it was 0.000516 s⁻¹; in the assay with mouse αKlotho [6], 0.00545 s⁻¹; in assay [7], 0.000516 s⁻¹. In addition, the kon amounted to 537000 M⁻¹ s⁻¹ in assay [3]; 268000 M⁻¹ s⁻¹ in the assay with mouse αKlotho [4]; 349000 M⁻¹ s⁻¹ in assay [5]; 273000 M⁻¹ s⁻¹ with mouse αKlotho [6]; 349000 M⁻¹ s⁻¹ in assay [7].

B5: anti-αKlotho Fab clone 4833 (Fab, V domains shown)
VH: EVQLVESGGGLVQPGGSLRLSCAASGFNLSSYYMHWVRQAPGKGLEWVASIYPSYSSTYYADSVKGRFTISADTSKNTAYLQMNSLRAEDTAVYYCARSSYSVYFWWYVSAMDYWGQGTLVTVSS
VL: DIQMTQSPSSLSASVGDRVTITCRASQSVSSAVAWYQQKPGKAPKLLIYSASSLYSGVPSRFSGSRSGTDFTLTISSLQPEDFATYYCQQSSHGHYPITFGQGTKVEIKR
notes: Fab (also as Fab-phage); FLAG tag on light chain; also called sb202
Regarding B5, in assay [1], binding was put at a Kd of 1.4 nM. In assay [3], this molecule displayed a Kd of 0.703 nM, a koff of 0.000519 s⁻¹ and an on-rate constant (kon) of 739000 M⁻¹ s⁻¹. For the same molecule, the binding result in the assay with bovine serum albumin was “no binding (tested: 5 ug/ml)”.
